# Test results: the nanobody polyreactivity screen of Harvey et al. (2022)
# Assay: yeast display, Sf9 membrane polyspecificity reagent, FACS + sequencing; frameworks hold sequencing errors
# In short: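 Nanobodies from a synthetic yeast display library (Saccharomyces cerevisiae BJ5465), induced 36–48 hours with galactose, were stained 1 hour at 4 °C with 10% biotinylated, detergent-solubilized Sf9 membrane reagent, enriched on streptavidin microbeads, then FACS-sorted. Anti-HA (expression) and streptavidin (reagent binding) fluorescence set low and high (top ~1%) gates. Polyreactivity labels come from the gate of origin. Genes were colony-PCR amplified, MiSeq 2 × 250 sequenced and filtered by CDR length.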
row,Sequence,polyreactivity (PSR sort gate)
1,QVQLVESGGGLVQAGGSLRLSCAASGSTFRYYAMGWYRQAPGKERELVAAISSAGTTYYADSVKGRFTISRDNAKNTVYLQMNSLNPEETAVYYCAAKYSYYTYAGDGGLFSWSYGYWGQGTQVTVSS,low polyreactivity
2,QVQLVESGGGLVEAGGSLRLSCAASGRIFHANAMGWYRQAPGKERELVAGISRHGGRTYYADSVKGRFTMSRDNAKNTVYLQMNSLNPEDTAVYYCNALDWQYKELDYYWGQGTQVTVSS,high polyreactivity
3,QVQLVESGGGLVQAGGSISLSCAASGRIFPTNDMGWYRQAPGKERELVASIDSVGSTKYADSVKGRFTISRDNAKNTVYLQMNSLKPEDTAVYYRALQVLNYDYWGQGTQVTVSS,low polyreactivity
4,QVQLVESGGGLVQAGGSLRLSCAASGIIFDEYAMGWYRQAPGKERELVAVIDWSGGSTYYADSVKGRFTISRDNAKNTFFLQMNSLKPEDTAVYYCAAEDDSTTPEFDYWGQGTQVTVSS,low polyreactivity
5,QVQLQESGGGLVQAGGRLSLSRAASGFISGTYCMGCYRQTPGQDREFVAGIGNGAITYYADSAKGCFTISRDNAKNAVYLQMNSLKQEETAVYYCAADGQWYYAPFRGGDYENDYWGQGTQVTVSS,low polyreactivity
6,QVQLVESGGGLVQAGGSLRLSCAASGRTFGWYTMGRYRQAPGKEREMVAGISSSGGSTYYADSVKGRFTISRDNAKNTVYLQMNSMKPEDTAVYYFARETYPHGLYYRPYDYWGQGTQVTVSS,low polyreactivity
7,QVQLVESGGGLVLAGGSRRLSCASSGSTFPLYTMGWYRQAPGKERELVAAINYGGTSTYYADSVKGRFTFSRVKAKNTVYLQRNSLKPEDTAVYYCAAERYFLYLCRKFGYWGQGTQVTVSW,high polyreactivity
8,QVQLLESGGGLVQAGGSLRLSCAASGFNFGGYVMGWYRQAPGKESELVAAISSSGGITHYADSLKGRFTISRDNAKNTVSLQMNRLKPEDTAVYYCNALYRQRYYWGQGTQVTVSS,high polyreactivity
9,QVQLVESGGGLVQAGGSLRLSCAASGLTFRWYAMGWYRQAPGKEREWVAAISSGGRTYYADSVKGRFTISRDNAKNTVYLHMNSLKPEDTAVYYCNKRTLDYGFGSYGRDYWGQGTQVTVSS,high polyreactivity
10,QVQLVESGGGLVQAGGSLRLSCAASGNIFVRYAMGWYRQAPGKERELVAAISSSGGRTYYADSVKGRFTISRDNAKNTVYLQMNSLKPEDTAVYYCADAQGNAHRDYWGQGTQVTVSS,high polyreactivity
11,QVQLVESGGGLVQAGGSLRLSCAASGRIFVDNAMGWYRQAPGKERELVATITSTGSTNYADSVKGRFTISRDNAKNTVYLQMNSLKPEDTAVYYCADGYYPYWGQGTQVTVSS,low polyreactivity
12,QVQLVDSGGGLVQAGATLRLSGAASGRIFGCNAMGWYRQAPGKVRELVAAISNGGSTYYADSVKGRFTISRDNAKNTVYFQMNSLKPEDTAVYYCNAAARIGYARRFYYWGQGTQVTVSS,high polyreactivity
13,QVQLVESGGGLVQAGGSLRLSCAASGITFWYYAMGWYRQAPRKERELVAAISWDGGSTYYADSVKGRFTISRDNAKNTVYVQMNSLKPEDTAVYYCNAVRYLERKYDYWGQGTQVTVSS,high polyreactivity
14,QVQLVESGGGLVQAGGSLRLICAASGSTFRHYAMGWYRQAPGKERELVAAIRRSGGTTYYADSVKGRFTISRDNAKNTVYLHMNSLKPEDTAVYYCAARLTVRKLVRFDYWGQGTQVTVSS,low polyreactivity
15,QVQLVESGGVIVQAGGSLRLSCAATGSNFWSYAMGSSRPAPGKERELVASITRSGGSTYYADSVKGRFTISRDNAKNTVYSQMNSLKPEDTAVYYCNARRTTRWGSSKYEYDYWGQGTQVTVSS,high polyreactivity
16,QVQLVESGGGLFQAGGTLRLSCDASGLIFLSYGMAWYRQAPGKERELVAAISSGGSTYYADSVKGRFTISRDNAKNTDYLQMNSLKPEDTAVYYCASEQPIEFDHWGQGTQVTVSS,low polyreactivity
17,QVQLVESGGGLVQAGASLRLSCAASGGIFAYYAMGWYRQAPGKERELVAAINRSGGSTRYADSVKGRFTNSRDNAKNTVFLQMNSLKPEETAVYYCATKRSTGYYWGQGTQVTVSS,high polyreactivity
18,QVKLVESGGGLVQAGGSLRLSCAASGGIFSPNAMGWYRHAPGKERELVAAISSNGGSTNYADSVKGRFTISRDNAKNTVYLQMNSLKPEDNAVYYCAKVYRSIGPNVSRYGLSYYYWGQGTQVTVSS,low polyreactivity
19,QVQLVESGGGLVQAGGSLRLSCAASGRTFFRYVMGWYRQAPGKERELVAAISTRGGSTYYADSVKGRFTISRDNAKNTVYLQMNSLKPEDTAVYYCAARFKVRDYSYNYWGQGTQVTVSS,high polyreactivity
20,QVQLVESGGGLVQAGGSLRLSCAASGSIFWAYTMGWYRQAPGKERELVAAISASGGSTYYADSVKGRFTISRDNAKNTFYLQMNSLKPEDTAVYYCNKDYHRPYGGGSKGDYWGQGTQVTVSS,low polyreactivity
21,QFHHVESGGGLVQAGGSLRLTCAATGIIILGNAKGWYRQAPGKERELVATITSGGTTNYADSVKGRFTISRDNAKNTVYLQMNSLIPEDTAVYYCNKRSYDQQEYEYDYWGQGTQVTVSS,low polyreactivity
22,QVQLVESGGGLVQAGGSLRLSSAASGYTFGFYGLGWYRQAPGKERELVAAISRSGGGSTYYADSVKGRFTISRDNAKNSVYLQMNSLKPEDSAVYYCNRDFDDEMWGQGTQVTVSS,low polyreactivity

row,Sequence,polyreactivity (PSR sort gate)
1,QVQLEESGGGLVQAGGSLRLSWAASGSTFSVNAMGWYRQAPGKERELVARITNGGSTYYADSVKGRFTISRDNAKNTVYLQMNSLKPEDTAVYYCAAKLGSYIYHKQRDWGQGTQVTVSS,low polyreactivity
2,QVQLVESGGGLVQAGGSLRLSCAASGFIFSSYAMGSYRQAPGKERELVAAISWSGGSTYYADSVKGRFTISRDNAKNTVYLQMKSLKPEDAAVYYCASVTRIFDYWGQGTQVTVSS,high polyreactivity
3,QVQLVESGGGLVQAGGSLRLSCAASGSIFRWYDMGWYRQAPGKERELVAVISKRGGSTYYADSVKGRFTISRDNAKNTVYLQMNSLKPEDTAVYYCAKRYERWQLARLDYWGQGTQVTVSS,high polyreactivity
4,QVQLVESGGGLVQAGGSLRLSCAASGIISIFNVMGWYRQAPGKERELVASITGRGGSTFYADSVKGRFTISRDNAKNTVYLQMNSLKPEDTAVYYCATDTGYTYPVTGLYDYWGQGTQVTVSS,low polyreactivity
5,QVQLVESGGGLVQAGGSLRLSCAASGSTFVYYAMGLYRQAPGKERELVAAITASGGGTYYADSVKGRFTISRDNAKNPVYLQMNSLKPEVTAVYYCNRGYDYWGQGTQVTVSS,low polyreactivity
6,QVQLVESGGGLVQAGGSLRLSCAASGRTFSKYTMGWYIQAPGKERELVAAISYSGGSTYYADSVKGRFTISRDNAKNTVYLKMNSLKPEDTAVYYCAARASTYKYYYWGQGTQVTVSA,high polyreactivity
7,QVQLVESGGGLVQAGGSLRLSCAASGSIFRGNSMGWYRQAPGKERELVAVITWSGGSTYYADSVKGRFTISRDNAKNTVYLQMNSLKPEDTAVYYCNAARKQRVYFAGDYWGQGTQVTVSS,high polyreactivity
8,QVQLVESGGGLVQAGGSLRLSCAASGSIFHYYAMGWYRQATGKERELVAAISTSGGSTYYADSVKGRFTISRDNAKNTVYLQMNSLKPEDTAVYYCNAVYYYFPVGDDEYWGQGTQVTVSS,high polyreactivity
9,QVQLVESGGGLVQAGGSLSLSCAASGSIFRWYAMGWYRQAPGKERELVALISWRGGSTYADSVKGRFTISRDNAKNTVYLQMNSLKPEDTADYYCNARPGSSYWYDAQWGEYGYWGQGTQVTVSS,high polyreactivity
10,QVQLVESGGGLVQAGGSLRLSCAASGSIFRTYAMGWYRQAPGKERELVAAITSGGSTYYADSVKGRFTISRDNAKNTVYLQMNSLKPEDTAVYYCAAVRYYRYWYYWGQGTQVTVSS,high polyreactivity
11,QVQLVESGGGIVQAGGSLRLSCAASGYTFTGYSMGWYRQAPGKEREFVAGITWRTGRTYYADSVKGRFTISRDNAKNNVYLQMNSLKREDTAVYFCYKDHQRRYYWSYDYWGQGTQVTVSS,low polyreactivity
12,QVQLVESGGGLVQAGGSLRLSCAASGSTFGLYAMGWYRQAPGKERELVAAIRWSGGRTYYADSVKGRFTISRDNAKNTVYLQMNSLKPEDTAVYYCAARSLRSKNDYWGQGTQVTVSS,high polyreactivity
13,QVQLVETGGGLVQAGGRLRLSCAASGSIFPDYDMGWYRQAPGKQRELVAAISSSGDSTYYADSVKGRFTISRDNAKNTVYLLMNSLKPEDTAVYYCAVDGTRSTSNGSEFTGYNYWGQGTQVTVSS,low polyreactivity
14,QVQLVESGGGLVQAGGSLRLICAASGRTFGYYTMGWYRPAPGKERELVARINYIGSSTYYADSVKGRFTISRDNAKNTVYLQMNSLKPEDTAVYYCNADNARGRSGVRRYYWGQGTQVTVSS,high polyreactivity
15,QVQLVESGGGLVQAGGSLRLSCAASGRIFGGYDMGWYRQAPGKERELVAAMTSDSSTTYADSVKGRFTISRDNAKNTVYLQMNSLKPEDTAVYYCAVQVNGPVFYRPYLDYDYWGQGTQVTVSS,low polyreactivity
16,QVQLVESGGGLVQAGGSLRLSCAASGSILSLYTMGWYRQAPGKERELVAAITRSGGSTYYADSVKGRFTISRDNAKNTVYLQMNSLKPEDTAVYYCAATREVTSYSSAPRVYYWGQGTQVTVSS,high polyreactivity
17,QVQLVESGGGLVQAGGSLRLSCAASGRIFPDYDMGWYRQAPGKERELVASISTRGGSTYADSVKGRFTISRDNAKNTVYLQMNSLKPEDTAVYYCATDGWKQSAYDYWGQGTQVTVSS,low polyreactivity
18,QVQHVESGGGLVQAGGSLRLSCAASGGIFYVNAMGWYRQEPGKERELVADITSDGVSKYYADSVKGRFTISRDNAKNTVYLQMNRLKPEDTAVYYCGGDNGGAGYYYGYVWYDYWGQGTQVTVSS,low polyreactivity
19,QVQLVESGGGLVQAGGSLRISCAASGRIYVYNVMGWSRQAPGKETELVAAISWGTGSTYADSVKGRFTISRDNAKNTVYLQMNSLKPEDTAVYYCAAAADYYYDHDYWGQGTQVTVSS,low polyreactivity
20,QDQLVESGGGIVQAGGSLRLSCAASGFIFYTYAMGCYRQAPGKESELVAAISSRGTRTYYADSVKGRFTISRDNAKNTVFLQMNSLKPEDTAVYYCAAVSYSYEYPSFDMGYWGQGTQVTVSS,high polyreactivity
21,QVQLVESGGGLVQAGGSLRLSCAASGSTIYAMGWYRQAPGKERELVAGINRSGTRTYYADSVKGRFTISRDNAKNTVYLQMNSLKPEDTAVYYCAALVYRPTYGYIFDYWGQGTQVTVSS,high polyreactivity
